One block for each binder: values may come before it.
How the values were obtained:
Details in all cases: remark: other sources report otherwise
[1] = biological target: MHC class I molecule B*0702; assay: iTopia affinity assay (ED50), peptide titration on plate-bound MHC
[2] = biological target: MHC class I molecule A*0301; assay: as above
[3] = biological target: MHC class I allele A*0101; assay: iTopia peptide binding assay
[4] = biological target: MHC class I allele A*0201; assay: iTopia peptide binding assay
[5] = biological target: MHC class I allele B*0702; assay: iTopia peptide binding assay
[6] = biological target: MHC class I allele A*0301; assay: iTopia peptide binding assay
[7] = biological target: MHC class I allele A*0201 monomer (human); assay: iTopia, multiparametric iScore
[8] = biological target: MHC class I allele B*0702 monomer (human); assay: iTopia, multiparametric iScore
[9] = biological target: MHC class I molecule HLA-A*0301 (iTopia plate-bound monomer); assay: iTopia off-rate assay, 37 C; fit R^2 0.99
[10] = biological target: MHC class I molecule A*0101; assay: iTopia iScore
[11] = biological target: MHC class I molecule A*0201; assay: iTopia iScore
[12] = biological target: MHC class I molecule B*0702; assay: iTopia iScore
[13] = biological target: MHC class I molecule A*0301; assay: iTopia iScore
[14] = biological target: MHC class I molecule HLA-B*0702 (iTopia plate-bound monomer); assay: iTopia off-rate assay, 37 C; fit R^2 0.09
[15] = biological target: MHC class I molecule HLA-A*0201 (iTopia plate-bound monomer); assay: iTopia off-rate assay, 37 C; fit R^2 0.35

EC50 [1]: 0.7 µM
EC50 [2]: 3 µM
Binder: RLARLALVL (here or on the partner: biotin (bound via biotin to streptavidin-coated plates)) [5T4 9 mer peptide 9 (…)]

% of positive control peptide binding [3]: 2%
% of positive control peptide binding [4]: 65%
% of positive control peptide binding [5]: 84%
% of positive control peptide binding [6]: 48%
Binder: RLARLALVL (here or on the partner: bound via biotin to streptavidin-coated plate) [5T4 9 mer peptide 9 …]

iScore [7]: 1.21
iScore [8]: 0.515
Binder: RLARLALVL (here or on the partner: biotinylated, bound to streptavidin-coated plate) [5T4 9-mer peptide 9]

t½ half life [9]: 0.3 h
iScore [10]: 0
iScore [11]: 1.21
iScore [12]: 0.515
iScore [13]: 0.052
t½ half life [14]: 2 h
t½ half life [15]: 15.9 h
Binder: RLARLALVL (here or on the partner: biotin (bound to streptavidin-coated plate)) [5T4 9-mer peptide 9 …]

From patent publication US20090280138A1
